# From patent US20210040155A1 (RHYTHM PHARMACEUTICALS, published 2021)
# Bridge positions count the residues as written; N and C are the ends. Square brackets hold non-standard residues; d marks the D form. dPhe(4-F) = N[C@H](Cc1ccc(F)cc1)C(=O)O; Pen = CC(C)(S)[C@H](N)C(=O)O; hCys = N[C@@H](CCS)C(=O)O
# Experiments:
# Test in all cases: cell-based or functional assay
# melanocortin-1 receptor = melanocortin-1 receptor (human, UniProt Q01726 1-317)
# melanocortin-3 receptor = melanocortin-3 receptor (human, UniProt P41968 1-323)
# melanocortin-4 receptor = melanocortin-4 receptor (human, UniProt P32245 1-332)
# melanocortin-5 receptor = melanocortin-5 receptor (human, UniProt P33032 1-325)
# Chain of melanocortin-5 receptor (P33032 whole entry): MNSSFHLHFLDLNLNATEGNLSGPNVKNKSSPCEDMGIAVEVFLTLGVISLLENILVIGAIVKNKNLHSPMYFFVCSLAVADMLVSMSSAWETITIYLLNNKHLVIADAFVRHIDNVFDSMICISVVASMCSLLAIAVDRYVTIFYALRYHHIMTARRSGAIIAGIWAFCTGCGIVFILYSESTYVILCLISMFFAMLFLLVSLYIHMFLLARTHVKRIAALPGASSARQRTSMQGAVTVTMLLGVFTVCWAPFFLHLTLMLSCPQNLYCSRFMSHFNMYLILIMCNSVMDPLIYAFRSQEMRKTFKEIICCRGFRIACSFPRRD
# Chain of melanocortin-1 receptor (Q01726 whole entry): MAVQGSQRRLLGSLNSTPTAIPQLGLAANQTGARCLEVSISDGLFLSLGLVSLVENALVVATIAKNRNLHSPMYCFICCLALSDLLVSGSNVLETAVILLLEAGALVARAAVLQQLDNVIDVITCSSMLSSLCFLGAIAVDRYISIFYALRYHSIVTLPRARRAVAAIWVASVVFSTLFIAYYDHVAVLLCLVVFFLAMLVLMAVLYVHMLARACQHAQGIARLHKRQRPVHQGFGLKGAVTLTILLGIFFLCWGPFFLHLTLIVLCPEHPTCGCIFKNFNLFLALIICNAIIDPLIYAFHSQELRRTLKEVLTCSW
# Chain of melanocortin-3 receptor (P41968 whole entry): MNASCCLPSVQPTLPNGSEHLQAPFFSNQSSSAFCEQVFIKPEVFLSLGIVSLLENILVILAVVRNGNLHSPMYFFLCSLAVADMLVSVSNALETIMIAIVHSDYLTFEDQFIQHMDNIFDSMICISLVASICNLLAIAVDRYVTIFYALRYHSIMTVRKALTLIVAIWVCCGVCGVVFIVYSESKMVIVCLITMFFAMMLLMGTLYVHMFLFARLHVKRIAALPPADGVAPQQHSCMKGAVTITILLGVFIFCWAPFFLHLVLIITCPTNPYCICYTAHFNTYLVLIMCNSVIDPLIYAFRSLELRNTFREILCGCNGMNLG
# Chain of melanocortin-4 receptor (P32245 whole entry): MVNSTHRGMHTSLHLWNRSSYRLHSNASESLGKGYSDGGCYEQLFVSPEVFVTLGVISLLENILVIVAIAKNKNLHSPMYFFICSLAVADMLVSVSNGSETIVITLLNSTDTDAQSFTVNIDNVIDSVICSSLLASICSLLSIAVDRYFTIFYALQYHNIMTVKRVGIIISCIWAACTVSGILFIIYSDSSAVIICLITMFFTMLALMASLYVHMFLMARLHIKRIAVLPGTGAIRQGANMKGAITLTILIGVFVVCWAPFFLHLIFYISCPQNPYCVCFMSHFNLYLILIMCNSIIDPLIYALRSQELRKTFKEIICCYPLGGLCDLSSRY
binder,measurement,setting,value
Ac-RC[dL]H[dF]RWC-NH2 (disulfide 2-8) [Ac-Arg-cyclo[Cys-D-Leu-His-D-Phe-Arg-Trp-Cys]-NH2],Ratios of EC50 values MC 1/4 (MC1R against MC4R),melanocortin-1 receptor,0.68 ratio
same,cAMP Assay (EC-50),melanocortin-1 receptor,0.47 nM
same,Ratios of EC50 values MC 3/4 (MC3R against MC4R),melanocortin-3 receptor,1.13 ratio
same,cAMP Assay (EC-50),melanocortin-3 receptor,0.79 nM
same,cAMP Assay (EC-50),melanocortin-4 receptor,0.7 nM
same,Ratios of EC50 values MC 5/4 (MC5R against MC4R),melanocortin-5 receptor,130 ratio
same,cAMP Assay (EC-50),melanocortin-5 receptor,91 nM
Ac-RC[dI]H[dF]RWC-NH2 (disulfide 2-8) [Ac-Arg-cyclo[Cys-D-Ile-His-D-Phe-Arg-Trp-Cys]-NH2],Ratios of EC50 values MC 1/4 (MC1R against MC4R),melanocortin-1 receptor,0.69 ratio
same,cAMP Assay (EC-50),melanocortin-1 receptor,0.69 nM
same,Ratios of EC50 values MC 3/4 (MC3R against MC4R),melanocortin-3 receptor,0.96 ratio
same,cAMP Assay (EC-50),melanocortin-3 receptor,0.96 nM
same,cAMP Assay (EC-50),melanocortin-4 receptor,1 nM
same,Ratios of EC50 values MC 5/4 (MC5R against MC4R),melanocortin-5 receptor,420 ratio
same,cAMP Assay (EC-50),melanocortin-5 receptor,420 nM
Ac-R[hCys][dA][dF]RWC-NH2 (disulfide 2-7; SMILES CC(=O)N[C@@H](CCCNC(=N)N)C(=O)N[C@H]1CCSSC[C@@H](C(N)=O)NC(=O)[C@H](Cc2c[nH]c3ccccc23)NC(=O)[C@H](CCCNC(=N)N)NC(=O)[C@@H](Cc2ccccc2)NC(=O)[C@@H](C)NC1=O) [Ac-Arg-cyclo[hCys-D-Ala-D-Phe-Arg-Trp-Cys]-NH2],Ratios of EC50 values MC 1/4 (MC1R against MC4R),melanocortin-1 receptor,120 ratio
same,cAMP Assay (EC-50),melanocortin-1 receptor,888 nM
same,Ratios of EC50 values MC 3/4 (MC3R against MC4R),melanocortin-3 receptor,420 ratio
same,cAMP Assay (EC-50),melanocortin-3 receptor,3160 nM
same,cAMP Assay (EC-50),melanocortin-4 receptor,7.5 nM
same,Ratios of EC50 values MC 5/4 (MC5R against MC4R),melanocortin-5 receptor,> 1340 ratio
same,cAMP Assay (EC-50),melanocortin-5 receptor,> 10000 nM
Ac-R[hCys][dA][dF]RW[Pen]-NH2 (disulfide 2-7; SMILES CC(=O)N[C@@H](CCCNC(=N)N)C(=O)N[C@H]1CCSSC(C)(C)[C@@H](C(N)=O)NC(=O)[C@H](Cc2c[nH]c3ccccc23)NC(=O)[C@H](CCCNC(=N)N)NC(=O)[C@@H](Cc2ccccc2)NC(=O)[C@@H](C)NC1=O) [Ac-Arg-cyclo[hCys-D-Ala-D-Phe-Arg-Trp-Pen]-NH2],Ratios of EC50 values MC 1/4 (MC1R against MC4R),melanocortin-1 receptor,15 ratio
same,cAMP Assay (EC-50),melanocortin-1 receptor,195 nM
same,Ratios of EC50 values MC 3/4 (MC3R against MC4R),melanocortin-3 receptor,17 ratio
same,cAMP Assay (EC-50),melanocortin-3 receptor,233 nM
same,cAMP Assay (EC-50),melanocortin-4 receptor,13.7 nM
same,Ratios of EC50 values MC 5/4 (MC5R against MC4R),melanocortin-5 receptor,159 ratio
same,cAMP Assay (EC-50),melanocortin-5 receptor,2180 nM
Ac-ECAH[dF]RWC-NH2 (disulfide 2-8; SMILES CC(=O)N[C@@H](CCC(=O)O)C(=O)N[C@H]1CSSC[C@@H](C(N)=O)NC(=O)[C@H](Cc2c[nH]c3ccccc23)NC(=O)[C@H](CCCNC(=N)N)NC(=O)[C@@H](Cc2ccccc2)NC(=O)[C@H](Cc2c[nH]cn2)NC(=O)[C@H](C)NC1=O) [Ac-Glu-cyclo[Cys-Ala-His-D-Phe-Arg-Trp-Cys]-NH2],Ratios of EC50 values MC 1/4 (MC1R against MC4R),melanocortin-1 receptor,> 3 ratio
same,cAMP Assay (EC-50),melanocortin-1 receptor,1.7 nM
same,Ratios of EC50 values MC 3/4 (MC3R against MC4R),melanocortin-3 receptor,> 20 ratio
same,cAMP Assay (EC-50),melanocortin-3 receptor,9.9 nM
same,cAMP Assay (EC-50),melanocortin-4 receptor,< 0.5 nM
same,Ratios of EC50 values MC 5/4 (MC5R against MC4R),melanocortin-5 receptor,> 2560 ratio
same,cAMP Assay (EC-50),melanocortin-5 receptor,1280 nM
Ac-RC[dV]H[dF]RWC-NH2 (disulfide 2-8) [Ac-Arg-cyclo[Cys-D-Val-His-D-Phe-Arg-Trp-Cys]-NH2],Ratios of EC50 values MC 1/4 (MC1R against MC4R),melanocortin-1 receptor,0.93 ratio
same,cAMP Assay (EC-50),melanocortin-1 receptor,1.25 nM
same,Ratios of EC50 values MC 3/4 (MC3R against MC4R),melanocortin-3 receptor,1.19 ratio
same,cAMP Assay (EC-50),melanocortin-3 receptor,1.59 nM
same,cAMP Assay (EC-50),melanocortin-4 receptor,1.34 nM
same,Ratios of EC50 values MC 5/4 (MC5R against MC4R),melanocortin-5 receptor,584 ratio
same,cAMP Assay (EC-50),melanocortin-5 receptor,782 nM
Ac-RC[dA]W[dF]RWC-NH2 (disulfide 2-8; SMILES CC(=O)N[C@@H](CCCNC(=N)N)C(=O)N[C@H]1CSSC[C@@H](C(N)=O)NC(=O)[C@H](Cc2c[nH]c3ccccc23)NC(=O)[C@H](CCCNC(=N)N)NC(=O)[C@@H](Cc2ccccc2)NC(=O)[C@H](Cc2c[nH]c3ccccc23)NC(=O)[C@@H](C)NC1=O) [Ac-Arg-cyclo[Cys-D-Ala-Trp-D-Phe-Arg-Trp-Cys]-NH2],Ratios of EC50 values MC 1/4 (MC1R against MC4R),melanocortin-1 receptor,8 ratio
same,cAMP Assay (EC-50),melanocortin-1 receptor,273 nM
same,Ratios of EC50 values MC 3/4 (MC3R against MC4R),melanocortin-3 receptor,> 290 ratio
same,cAMP Assay (EC-50),melanocortin-3 receptor,> 10000 nM
same,cAMP Assay (EC-50),melanocortin-4 receptor,34 nM
same,Ratios of EC50 values MC 5/4 (MC5R against MC4R),melanocortin-5 receptor,7 ratio
same,cAMP Assay (EC-50),melanocortin-5 receptor,259 nM
Ac-RC[dA]Q[dF]RWC-NH2 (disulfide 2-8; SMILES CC(=O)N[C@@H](CCCNC(=N)N)C(=O)N[C@H]1CSSC[C@@H](C(N)=O)NC(=O)[C@H](Cc2c[nH]c3ccccc23)NC(=O)[C@H](CCCNC(=N)N)NC(=O)[C@@H](Cc2ccccc2)NC(=O)[C@H](CCC(N)=O)NC(=O)[C@@H](C)NC1=O) [Ac-Arg-cyclo[Cys-D-Ala-Gln-D-Phe-Arg-Trp-Cys]-NH2],Ratios of EC50 values MC 1/4 (MC1R against MC4R),melanocortin-1 receptor,40 ratio
same,cAMP Assay (EC-50),melanocortin-1 receptor,71 nM
same,Ratios of EC50 values MC 3/4 (MC3R against MC4R),melanocortin-3 receptor,5 ratio
same,cAMP Assay (EC-50),melanocortin-3 receptor,8.6 nM
same,cAMP Assay (EC-50),melanocortin-4 receptor,1.6 nM
same,Ratios of EC50 values MC 5/4 (MC5R against MC4R),melanocortin-5 receptor,155 ratio
same,cAMP Assay (EC-50),melanocortin-5 receptor,255 nM
Ac-RC[dA]N[dF]RWC-NH2 (disulfide 2-8; SMILES CC(=O)N[C@@H](CCCNC(=N)N)C(=O)N[C@H]1CSSC[C@@H](C(N)=O)NC(=O)[C@H](Cc2c[nH]c3ccccc23)NC(=O)[C@H](CCCNC(=N)N)NC(=O)[C@@H](Cc2ccccc2)NC(=O)[C@H](CC(N)=O)NC(=O)[C@@H](C)NC1=O) [Ac-Arg-cyclo[Cys-D-Ala-Asn-D-Phe-Arg-Trp-Cys]-NH2],Ratios of EC50 values MC 1/4 (MC1R against MC4R),melanocortin-1 receptor,90 ratio
same,cAMP Assay (EC-50),melanocortin-1 receptor,248 nM
same,Ratios of EC50 values MC 3/4 (MC3R against MC4R),melanocortin-3 receptor,30 ratio
same,cAMP Assay (EC-50),melanocortin-3 receptor,81 nM
same,cAMP Assay (EC-50),melanocortin-4 receptor,3 nM
same,Ratios of EC50 values MC 5/4 (MC5R against MC4R),melanocortin-5 receptor,530 ratio
same,cAMP Assay (EC-50),melanocortin-5 receptor,1490 nM
Ac-RC[dA]R[dF]RWC-NH2 (disulfide 2-8; SMILES CC(=O)N[C@@H](CCCNC(=N)N)C(=O)N[C@H]1CSSC[C@@H](C(N)=O)NC(=O)[C@H](Cc2c[nH]c3ccccc23)NC(=O)[C@H](CCCNC(=N)N)NC(=O)[C@@H](Cc2ccccc2)NC(=O)[C@H](CCCNC(=N)N)NC(=O)[C@@H](C)NC1=O) [Ac-Arg-cyclo[Cys-D-Ala-Arg-D-Phe-Arg-Trp-Cys]-NH2],Ratios of EC50 values MC 1/4 (MC1R against MC4R),melanocortin-1 receptor,2.31 ratio
same,cAMP Assay (EC-50),melanocortin-1 receptor,6.2 nM
same,Ratios of EC50 values MC 3/4 (MC3R against MC4R),melanocortin-3 receptor,1.45 ratio
same,cAMP Assay (EC-50),melanocortin-3 receptor,3.9 nM
same,cAMP Assay (EC-50),melanocortin-4 receptor,2.7 nM
Ac-RC[dA]Y[dF]RWC-NH2 (disulfide 2-8; SMILES CC(=O)N[C@@H](CCCNC(=N)N)C(=O)N[C@H]1CSSC[C@@H](C(N)=O)NC(=O)[C@H](Cc2c[nH]c3ccccc23)NC(=O)[C@H](CCCNC(=N)N)NC(=O)[C@@H](Cc2ccccc2)NC(=O)[C@H](Cc2ccc(O)cc2)NC(=O)[C@@H](C)NC1=O) [Ac-Arg-cyclo[Cys-D-Ala-Tyr-D-Phe-Arg-Trp-Cys]-NH2],Ratios of EC50 values MC 1/4 (MC1R against MC4R),melanocortin-1 receptor,6.67 ratio
same,cAMP Assay (EC-50),melanocortin-1 receptor,301 nM
same,Ratios of EC50 values MC 3/4 (MC3R against MC4R),melanocortin-3 receptor,> 22.2 ratio
same,cAMP Assay (EC-50),melanocortin-3 receptor,> 1000 nM
same,cAMP Assay (EC-50),melanocortin-4 receptor,45.1 nM
Ac-RC[dA]P[dF]RWC-NH2 (disulfide 2-8; SMILES CC(=O)N[C@@H](CCCNC(=N)N)C(=O)N[C@H]1CSSC[C@@H](C(N)=O)NC(=O)[C@H](Cc2c[nH]c3ccccc23)NC(=O)[C@H](CCCNC(=N)N)NC(=O)[C@@H](Cc2ccccc2)NC(=O)[C@@H]2CCCN2C(=O)[C@@H](C)NC1=O) [Ac-Arg-cyclo[Cys-D-Ala-Pro-D-Phe-Arg-Trp-Cys]-NH2],Ratios of EC50 values MC 1/4 (MC1R against MC4R),melanocortin-1 receptor,5 ratio
same,cAMP Assay (EC-50),melanocortin-1 receptor,280 nM
same,Ratios of EC50 values MC 3/4 (MC3R against MC4R),melanocortin-3 receptor,> 200 ratio
same,cAMP Assay (EC-50),melanocortin-3 receptor,> 10000 nM
same,cAMP Assay (EC-50),melanocortin-4 receptor,56 nM
same,Ratios of EC50 values MC 5/4 (MC5R against MC4R),melanocortin-5 receptor,13 ratio
same,cAMP Assay (EC-50),melanocortin-5 receptor,707 nM
Ac-RC[dA]P[dPhe(4-F)]RWC-NH2 (disulfide 2-8; SMILES CC(=O)N[C@@H](CCCNC(=N)N)C(=O)N[C@H]1CSSC[C@@H](C(N)=O)NC(=O)[C@H](Cc2c[nH]c3ccccc23)NC(=O)[C@H](CCCNC(=N)N)NC(=O)[C@@H](Cc2ccc(F)cc2)NC(=O)[C@@H]2CCCN2C(=O)[C@@H](C)NC1=O) [Ac-Arg-cyclo[Cys-D-Ala-Pro-D-Phe(p-F)-Arg-Trp-Cys]-NH2],Ratios of EC50 values MC 1/4 (MC1R against MC4R),melanocortin-1 receptor,7 ratio
same,cAMP Assay (EC-50),melanocortin-1 receptor,169 nM
same,Ratios of EC50 values MC 3/4 (MC3R against MC4R),melanocortin-3 receptor,> 400 ratio
same,cAMP Assay (EC-50),melanocortin-3 receptor,> 10000 nM
same,cAMP Assay (EC-50),melanocortin-4 receptor,24 nM
same,Ratios of EC50 values MC 5/4 (MC5R against MC4R),melanocortin-5 receptor,12 ratio
same,cAMP Assay (EC-50),melanocortin-5 receptor,283 nM
Ac-R[hCys]A[dF]RWC-NH2 (disulfide 2-7; SMILES CC(=O)N[C@@H](CCCNC(=N)N)C(=O)N[C@H]1CCSSC[C@@H](C(N)=O)NC(=O)[C@H](Cc2c[nH]c3ccccc23)NC(=O)[C@H](CCCNC(=N)N)NC(=O)[C@@H](Cc2ccccc2)NC(=O)[C@H](C)NC1=O) [Ac-Arg-cyclo[hCys-Ala-D-Phe-Arg-Trp-Cys]-NH2],Ratios of EC50 values MC 1/4 (MC1R against MC4R),melanocortin-1 receptor,15 ratio
same,cAMP Assay (EC-50),melanocortin-1 receptor,4 nM
same,Ratios of EC50 values MC 3/4 (MC3R against MC4R),melanocortin-3 receptor,3.8 ratio
same,cAMP Assay (EC-50),melanocortin-3 receptor,1 nM
same,cAMP Assay (EC-50),melanocortin-4 receptor,0.26 nM
same,Ratios of EC50 values MC 5/4 (MC5R against MC4R),melanocortin-5 receptor,161 ratio
same,cAMP Assay (EC-50),melanocortin-5 receptor,42 nM
